Experimental data from the supplement of paper PMC7125110.
± gives the standard error. This sample holds only a part of the variants without activity.

B1: glmS ribozyme (parent)
chain: AUAAAAGCGCCAGAACUACAGAAAUGUAGUUGACGAGGAGGAGGUUUAUCGAAUUUUCGGCGGAUGCCUCCAAA

How the values were obtained:
Conditions in all cases: with glucosamine-6-phosphate
glucosamine-6-phosphate [1] = variants of: B1; experiment: self-cleavage kobs at 40 uM GlcN6P; higher = faster cleavage; RNA array
Outline: (§1)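 Barcoded ribozyme variants, transcribed in situ by E. coli RNA polymerase on sequenced MiSeq chips, were followed via a hybridised Cy3 probe at 37 °C. Glucosamine-6-phosphate ranged from 40 μM to 10 mM in HEPES/KCl/Mg(OAc)2 buffer. kobs came from decay fits to per-tile medians, and kcat and KM from weighted Michaelis–Menten fits.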

glucosamine-6-phosphate [2] = variants of: B1; experiment: self-cleavage kobs at 160 uM GlcN6P; higher = faster cleavage; RNA array
Outline: as §1

glucosamine-6-phosphate [3] = variants of: B1; experiment: self-cleavage kobs at 640 uM GlcN6P; higher = faster cleavage; RNA array
Outline: as §1

glucosamine-6-phosphate [4] = variants of: B1; experiment: self-cleavage kobs at 2500 uM GlcN6P; higher = faster cleavage; RNA array
Outline: as §1

glucosamine-6-phosphate [5] = variants of: B1; experiment: self-cleavage kobs at 10000 uM GlcN6P; higher = faster cleavage; RNA array
Outline: as §1

| Variant | self-cleavage kobs at 40 uM GlcN6P (glucosamine-6-phosphate [1]) | self-cleavage kobs at 160 uM GlcN6P (glucosamine-6-phosphate [2]) | self-cleavage kobs at 640 uM GlcN6P (glucosamine-6-phosphate [3]) | self-cleavage kobs at 2500 uM GlcN6P (glucosamine-6-phosphate [4]) | self-cleavage kobs at 10000 uM GlcN6P (glucosamine-6-phosphate [5]) |
| --- | --- | --- | --- | --- | --- |
| C10A G40A | < 1e-05 s⁻¹ | < 1e-05 s⁻¹ | < 1e-05 s⁻¹ | < 1e-05 s⁻¹ | < 1e-05 s⁻¹ |
| C8U G59U | < 1e-05 s⁻¹ | < 1e-05 s⁻¹ | < 1e-05 s⁻¹ | < 1e-05 s⁻¹ | < 1e-05 s⁻¹ |
| C8U G9C C10A G37U G40U G41A C50U | < 1e-05 s⁻¹ | – | – | – | – |
| C8U A53U | < 1e-05 s⁻¹ | – | < 1e-05 s⁻¹ | – | < 1e-05 s⁻¹ |
| G9C G43A G44U C70G | < 1e-05 s⁻¹ | – | – | – | < 1e-05 s⁻¹ |
| G9A G63A | < 1e-05 s⁻¹ | – | < 1e-05 s⁻¹ | < 1e-05 s⁻¹ | < 1e-05 s⁻¹ |
| G9A U30C U31C C50A | < 1e-05 s⁻¹ | < 1e-05 s⁻¹ | < 1e-05 s⁻¹ | – | < 1e-05 s⁻¹ |
| G9A A42G G43U C61A | < 1e-05 s⁻¹ | – | < 1e-05 s⁻¹ | – | – |
| C8U C10U C70G | 5.14e-05 ± 2.4e-05 s⁻¹ | 8.73e-05 ± 2.6e-05 s⁻¹ | 0.000103 ± 2.5e-05 s⁻¹ | 0.000587 ± 0.00021 s⁻¹ | 5.37e-05 ± 1.7e-05 s⁻¹ |
| G9U U69C | < 1e-05 s⁻¹ | – | – | < 1e-05 s⁻¹ | – |
| G9C U54A U56G G66A | < 1e-05 s⁻¹ | – | – | – | – |
| C8U G62A | < 1e-05 s⁻¹ | < 1e-05 s⁻¹ | – | – | 7.26e-05 ± 1.2e-05 s⁻¹ |
| C10A U30G A39U C67A | < 1e-05 s⁻¹ | – | – | – | – |
| G9A A52U | < 1e-05 s⁻¹ | < 1e-05 s⁻¹ | < 1e-05 s⁻¹ | < 1e-05 s⁻¹ | < 1e-05 s⁻¹ |
| G9C A15G C50G G59C C70G | 0.00011 ± 3.6e-05 s⁻¹ | – | – | – | 0.000264 ± 5.3e-05 s⁻¹ |
| G9A C34G | < 1e-05 s⁻¹ | < 1e-05 s⁻¹ | – | < 1e-05 s⁻¹ | < 1e-05 s⁻¹ |
| C8U G29C | < 1e-05 s⁻¹ | < 1e-05 s⁻¹ | < 1e-05 s⁻¹ | < 1e-05 s⁻¹ | < 1e-05 s⁻¹ |
| C8U G29A | < 1e-05 s⁻¹ | – | – | < 1e-05 s⁻¹ | – |
| C10G G37C U47A U57A G66C C70G | < 1e-05 s⁻¹ | – | – | – | < 1e-05 s⁻¹ |
| G9C G29C C67U | < 1e-05 s⁻¹ | – | < 1e-05 s⁻¹ | – | < 1e-05 s⁻¹ |
| C10U A36G C71G | < 1e-05 s⁻¹ | – | – | – | < 1e-05 s⁻¹ |
| C10G C50G G63A C71U | 6.86e-05 ± 1.9e-05 s⁻¹ | – | – | – | 5.34e-05 ± 1.7e-05 s⁻¹ |
| G9U A33C A36C U46C C68G | < 1e-05 s⁻¹ | – | – | – | < 1e-05 s⁻¹ |
| G9U G29C U30C | < 1e-05 s⁻¹ | < 1e-05 s⁻¹ | < 1e-05 s⁻¹ | < 1e-05 s⁻¹ | < 1e-05 s⁻¹ |
| G9U C50U C70U | < 1e-05 s⁻¹ | – | – | – | – |

| Variant | self-cleavage kobs at 40 uM GlcN6P (glucosamine-6-phosphate [1]) | self-cleavage kobs at 160 uM GlcN6P (glucosamine-6-phosphate [2]) | self-cleavage kobs at 640 uM GlcN6P (glucosamine-6-phosphate [3]) | self-cleavage kobs at 2500 uM GlcN6P (glucosamine-6-phosphate [4]) | self-cleavage kobs at 10000 uM GlcN6P (glucosamine-6-phosphate [5]) |
| --- | --- | --- | --- | --- | --- |
| C8U G44C A53U G63U C68G | < 1e-05 s⁻¹ | – | – | – | < 1e-05 s⁻¹ |
| C10A G38A A53U C68A | < 1e-05 s⁻¹ | – | – | – | – |
| C8U C11U C58A C67G | 0.00018 ± 3.1e-05 s⁻¹ | – | 0.00126 ± 0.00052 s⁻¹ | 0.000112 ± 4.5e-05 s⁻¹ | 0.000209 ± 5.4e-05 s⁻¹ |
| C8U U45G | < 1e-05 s⁻¹ | < 1e-05 s⁻¹ | < 1e-05 s⁻¹ | < 1e-05 s⁻¹ | – |
| G9U C34A G35C G43U | < 1e-05 s⁻¹ | – | – | < 1e-05 s⁻¹ | – |
| C8U A64G C68U | < 1e-05 s⁻¹ | – | – | – | < 1e-05 s⁻¹ |
| G9U C11A G59A A64U | < 1e-05 s⁻¹ | – | – | – | – |
| G9C A42G | < 1e-05 s⁻¹ | < 1e-05 s⁻¹ | – | < 1e-05 s⁻¹ | < 1e-05 s⁻¹ |
| G9A C10A G32A | < 1e-05 s⁻¹ | – | – | – | – |
| C10G A48U | < 1e-05 s⁻¹ | < 1e-05 s⁻¹ | < 1e-05 s⁻¹ | < 1e-05 s⁻¹ | < 1e-05 s⁻¹ |
| C10G G38U U65G | < 1e-05 s⁻¹ | – | – | – | < 1e-05 s⁻¹ |
| G9A C34A G44U U54A C68A | < 1e-05 s⁻¹ | – | – | – | – |
| C8U G37C A42U U55C | < 1e-05 s⁻¹ | – | – | – | – |
| C8U G43U G44U C71A | < 1e-05 s⁻¹ | – | < 1e-05 s⁻¹ | – | – |
| G9A A15U G63U | < 1e-05 s⁻¹ | – | – | – | – |
| C10A A14U C70A | 5.36e-05 ± 2.5e-05 s⁻¹ | – | – | – | 3.49e-05 ± 1.4e-05 s⁻¹ |
| C10G A33G A52U C58U A64U | < 1e-05 s⁻¹ | – | – | – | – |
| C8U G41A G59C | < 1e-05 s⁻¹ | – | – | – | < 1e-05 s⁻¹ |
| G9U G35A | < 1e-05 s⁻¹ | < 1e-05 s⁻¹ | < 1e-05 s⁻¹ | < 1e-05 s⁻¹ | < 1e-05 s⁻¹ |
| G9U G38A U56C G63U | < 1e-05 s⁻¹ | – | – | – | < 1e-05 s⁻¹ |
| C10G G51C C58A | < 1e-05 s⁻¹ | – | < 1e-05 s⁻¹ | – | < 1e-05 s⁻¹ |
| C10A G40U G41A C70A | < 1e-05 s⁻¹ | – | – | – | < 1e-05 s⁻¹ |
| G9U G29U A42G U65G | < 1e-05 s⁻¹ | – | – | – | < 1e-05 s⁻¹ |
| G9C C11G G40A | < 1e-05 s⁻¹ | – | – | – | < 1e-05 s⁻¹ |
